We go through one substance from US11731099B2, “Method for controlling encapsulation efficiency and burst release of water soluble molecules from nanoparticles and microparticles produced by inverse flash nanoprecipitation” (The Trustees of Princeton University, priority 2018, dated 2023).

This data set is described as follows: Burst release of lysozyme from coated nanoparticles in release media. The note with it: PBS with 0.2 wt % Tween-20 versus PBS, 37° C. Format: physicochemical.

For the substance lysozyme, the “increase of burst release in presence of surfactant” value amounted to 25%.
